{"source": "paper PMC6706699", "about": "(Developmental Cell, 2019)", "molecules": {"B1": {"name": "T156-phosphorylated μ2 linker peptide (residues 149–163) (peptide)", "peptide": "SQITSQV[pT]GQIGWRR", "notes": "also called Peptide μ2linker Phos; phosphorylated μ2 peptide; source: synthetic peptide (Genscript)"}}, "key": {"[1]": {"molecular_target": "TGN38 cytoplasmic domain peptide, lipid-linked, in PtdIns4,5P2 liposomes", "assay": "SPR; BIAcore T200, liposomes (PC/PE with 4% PtdIns4,5P2 and 2% lipid-linked peptide) on an L1 sensor; core or Pcore injected at 50 nM to 50 μM; 10 mM Tris pH 8.7, 250 mM NaCl, 1 mM DTT; apparent constants from fast and slow dissociation amplitudes"}, "[2]": {"molecular_target": "NECAP1 PHear domain, 1-133 (UniProt Q8NC96)", "assay": "ITC", "settings": "reference: unphosphorylated peptide …; sites T156"}, "[3]": {"molecular_target": "μ2T156-phosphorylated AP2, endogenous in RPE cells (human (endogenous in RPE)) (UniProt O95782)", "sequence (O95782 whole entry, chain 1 of 4)": "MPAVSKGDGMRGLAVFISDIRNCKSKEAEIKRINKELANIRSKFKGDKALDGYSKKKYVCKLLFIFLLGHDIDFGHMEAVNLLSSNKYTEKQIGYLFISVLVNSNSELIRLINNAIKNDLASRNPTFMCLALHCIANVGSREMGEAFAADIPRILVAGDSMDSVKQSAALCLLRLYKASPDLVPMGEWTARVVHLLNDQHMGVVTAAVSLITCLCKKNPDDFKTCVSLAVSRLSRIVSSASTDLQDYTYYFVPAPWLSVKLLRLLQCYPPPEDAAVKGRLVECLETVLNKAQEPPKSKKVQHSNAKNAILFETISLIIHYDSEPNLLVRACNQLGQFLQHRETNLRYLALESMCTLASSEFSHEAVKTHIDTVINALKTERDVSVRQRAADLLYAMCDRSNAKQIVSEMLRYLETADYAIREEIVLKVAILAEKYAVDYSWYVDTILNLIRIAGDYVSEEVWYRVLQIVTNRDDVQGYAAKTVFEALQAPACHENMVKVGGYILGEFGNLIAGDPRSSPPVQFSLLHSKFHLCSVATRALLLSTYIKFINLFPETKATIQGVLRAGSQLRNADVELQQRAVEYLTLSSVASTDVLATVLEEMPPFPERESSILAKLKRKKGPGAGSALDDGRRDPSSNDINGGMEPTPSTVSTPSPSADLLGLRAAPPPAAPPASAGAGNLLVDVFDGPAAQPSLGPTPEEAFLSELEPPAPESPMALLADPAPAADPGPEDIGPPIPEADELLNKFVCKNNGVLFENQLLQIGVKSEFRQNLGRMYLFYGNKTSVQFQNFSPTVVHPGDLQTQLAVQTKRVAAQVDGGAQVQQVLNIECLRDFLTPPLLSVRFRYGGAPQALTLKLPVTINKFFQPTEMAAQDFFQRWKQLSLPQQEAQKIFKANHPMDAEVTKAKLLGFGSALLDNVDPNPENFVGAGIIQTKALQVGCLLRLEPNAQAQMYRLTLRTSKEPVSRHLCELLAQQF", "sequence (P63010 whole entry, chain 2 of 4, further chain)": "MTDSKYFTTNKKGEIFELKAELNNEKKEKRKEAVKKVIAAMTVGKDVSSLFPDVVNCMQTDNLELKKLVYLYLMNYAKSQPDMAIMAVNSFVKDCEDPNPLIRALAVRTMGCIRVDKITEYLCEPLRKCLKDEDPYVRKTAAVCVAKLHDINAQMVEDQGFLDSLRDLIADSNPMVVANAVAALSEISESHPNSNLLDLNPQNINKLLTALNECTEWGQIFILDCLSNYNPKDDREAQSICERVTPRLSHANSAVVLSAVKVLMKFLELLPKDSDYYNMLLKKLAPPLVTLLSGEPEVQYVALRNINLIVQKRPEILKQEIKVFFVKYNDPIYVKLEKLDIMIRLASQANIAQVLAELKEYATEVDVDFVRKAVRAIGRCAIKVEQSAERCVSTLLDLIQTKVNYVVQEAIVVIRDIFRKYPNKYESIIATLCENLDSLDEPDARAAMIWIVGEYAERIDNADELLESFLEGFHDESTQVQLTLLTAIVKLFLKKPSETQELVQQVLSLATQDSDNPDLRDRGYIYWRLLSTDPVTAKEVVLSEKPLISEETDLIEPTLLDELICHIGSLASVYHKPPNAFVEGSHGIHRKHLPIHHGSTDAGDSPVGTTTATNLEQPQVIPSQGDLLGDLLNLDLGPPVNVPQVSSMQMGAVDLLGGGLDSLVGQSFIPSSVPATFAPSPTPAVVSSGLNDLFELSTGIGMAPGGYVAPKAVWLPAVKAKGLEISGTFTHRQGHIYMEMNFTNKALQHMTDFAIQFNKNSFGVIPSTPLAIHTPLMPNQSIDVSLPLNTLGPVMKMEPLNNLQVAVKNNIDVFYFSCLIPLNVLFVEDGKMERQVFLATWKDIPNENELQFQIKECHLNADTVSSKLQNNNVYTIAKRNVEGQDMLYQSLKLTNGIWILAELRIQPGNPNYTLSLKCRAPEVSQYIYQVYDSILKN", "sequence (Q96CW1 whole entry, chain 3 of 4, further chain)": "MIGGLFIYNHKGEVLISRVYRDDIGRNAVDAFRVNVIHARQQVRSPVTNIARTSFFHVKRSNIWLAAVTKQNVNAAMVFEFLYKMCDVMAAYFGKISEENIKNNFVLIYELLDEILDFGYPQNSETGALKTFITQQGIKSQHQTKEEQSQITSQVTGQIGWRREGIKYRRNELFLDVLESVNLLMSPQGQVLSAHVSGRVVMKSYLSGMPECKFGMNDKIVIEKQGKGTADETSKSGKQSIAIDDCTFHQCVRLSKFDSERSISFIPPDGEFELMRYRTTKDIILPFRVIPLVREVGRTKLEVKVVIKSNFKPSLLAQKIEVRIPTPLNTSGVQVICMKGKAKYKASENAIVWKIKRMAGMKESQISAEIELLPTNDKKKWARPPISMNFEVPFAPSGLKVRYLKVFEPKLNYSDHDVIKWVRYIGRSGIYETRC", "sequence (P53680 whole entry, chain 4 of 4, further chain)": "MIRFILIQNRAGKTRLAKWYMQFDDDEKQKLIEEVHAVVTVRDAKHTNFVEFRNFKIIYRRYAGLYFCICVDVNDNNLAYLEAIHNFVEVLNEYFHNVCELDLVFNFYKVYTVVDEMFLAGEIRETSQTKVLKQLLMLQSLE", "assay": "co-IP; native co-immunoprecipitation with anti-AP2α antibody AP6 on protein G-Sepharose from RPE cell lysates (0.1% NP40), overnight at 4°C; western blot"}, "[4]": {"molecular_target": "Recombinant T156-phosphorylated AP2 core (UniProt P18484)", "sequence (P18484 whole entry, chain 1 of 4)": "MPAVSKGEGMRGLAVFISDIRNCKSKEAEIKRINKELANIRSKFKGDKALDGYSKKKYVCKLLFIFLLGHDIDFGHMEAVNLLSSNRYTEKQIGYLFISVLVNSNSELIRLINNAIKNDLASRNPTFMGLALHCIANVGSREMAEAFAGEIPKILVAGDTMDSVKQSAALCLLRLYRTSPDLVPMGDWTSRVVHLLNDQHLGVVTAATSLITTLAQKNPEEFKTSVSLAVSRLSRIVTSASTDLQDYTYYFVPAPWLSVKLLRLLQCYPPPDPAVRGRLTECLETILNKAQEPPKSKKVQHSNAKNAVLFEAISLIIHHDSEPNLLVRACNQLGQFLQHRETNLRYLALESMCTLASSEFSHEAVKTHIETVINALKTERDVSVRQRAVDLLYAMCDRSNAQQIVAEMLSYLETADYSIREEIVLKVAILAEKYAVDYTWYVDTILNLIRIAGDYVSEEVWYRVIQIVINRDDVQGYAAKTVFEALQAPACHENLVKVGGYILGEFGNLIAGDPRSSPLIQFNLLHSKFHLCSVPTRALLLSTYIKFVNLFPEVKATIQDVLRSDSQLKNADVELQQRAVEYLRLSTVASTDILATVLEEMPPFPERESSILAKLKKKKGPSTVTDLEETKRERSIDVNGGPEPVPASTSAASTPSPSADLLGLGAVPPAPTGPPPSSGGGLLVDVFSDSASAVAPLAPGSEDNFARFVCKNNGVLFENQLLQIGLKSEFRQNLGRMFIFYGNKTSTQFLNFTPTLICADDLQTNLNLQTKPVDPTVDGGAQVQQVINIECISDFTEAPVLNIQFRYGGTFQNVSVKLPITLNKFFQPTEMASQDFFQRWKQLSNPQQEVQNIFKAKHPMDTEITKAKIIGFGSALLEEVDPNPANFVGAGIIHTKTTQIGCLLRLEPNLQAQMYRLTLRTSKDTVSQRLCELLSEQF", "sequence (P63010 1-592, chain 2 of 4, further chain)": "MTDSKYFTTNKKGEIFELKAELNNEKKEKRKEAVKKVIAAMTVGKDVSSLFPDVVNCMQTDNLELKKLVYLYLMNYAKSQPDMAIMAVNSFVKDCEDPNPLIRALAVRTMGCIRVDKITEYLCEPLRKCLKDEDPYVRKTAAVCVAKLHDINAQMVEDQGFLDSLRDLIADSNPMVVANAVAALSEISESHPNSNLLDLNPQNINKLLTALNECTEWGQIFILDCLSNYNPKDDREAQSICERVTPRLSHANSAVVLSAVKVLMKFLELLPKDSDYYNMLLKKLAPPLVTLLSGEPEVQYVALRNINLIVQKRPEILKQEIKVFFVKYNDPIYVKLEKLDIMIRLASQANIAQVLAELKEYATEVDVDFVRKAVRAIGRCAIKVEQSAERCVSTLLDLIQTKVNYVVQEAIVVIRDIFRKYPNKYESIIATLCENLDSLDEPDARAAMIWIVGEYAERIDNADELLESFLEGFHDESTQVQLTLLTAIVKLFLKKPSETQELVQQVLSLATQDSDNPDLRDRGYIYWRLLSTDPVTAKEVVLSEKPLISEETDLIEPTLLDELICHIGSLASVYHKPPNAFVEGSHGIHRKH", "sequence (P84092 whole entry, chain 3 of 4, further chain)": "as the sequence (Q96CW1 whole entry, chain 3 of 4, further chain) above", "sequence (P62743 whole entry, chain 4 of 4, further chain)": "as the sequence (P53680 whole entry, chain 4 of 4, further chain) above", "assay": "ITC; Nano ITC, 10°C, 100 mM TRIS pH 8, 250 mM NaCl, 0.25 mM TCEP; 0.05-0.1 mM Pcore in the cell, 2-3 mM PHear titrated in"}, "[5]": {"molecular_target": "T1, NECAP1 PHear (1-133) R32D (UniProt Q8NC96 1-133, R32D)", "T1 sequence": "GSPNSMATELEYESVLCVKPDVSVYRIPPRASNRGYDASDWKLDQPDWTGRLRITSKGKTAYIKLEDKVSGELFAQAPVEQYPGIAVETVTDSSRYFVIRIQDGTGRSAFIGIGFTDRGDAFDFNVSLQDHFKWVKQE", "assay": "ITC"}, "[6]": {"molecular_target": "T2, NECAP1 PHear (1-133) S88A (UniProt Q8NC96 1-133, S88A)", "T2 sequence": "T1 sequence with D37R, S93A", "assay": "ITC"}, "[7]": {"molecular_target": "T3, NECAP1 PHear (1-133) R102A (UniProt Q8NC96 1-133, R102A)", "T3 construct": "NECAP1 PHear domain, residues 1-133; source: E. coli BL21DE3 pLysS, purified (GST sepharose, thrombin cleavage, gel filtration); not shown: GST, N-terminal, cleaved", "T3 sequence": "T1 sequence with D37R, R107A", "assay": "ITC; Nano ITC, 12°C, 75 mM HEPES pH 7.4, 0.25 mM TCEP; PHear domains in the cell, peptides at 1-5 mM titrated in", "settings": "both partners purified"}, "[8]": {"molecular_target": "T4, NECAP1 PHear (1-133) R32D (UniProt Q8NC96 1-133, R32D)", "T4 construct": "NECAP1 PHear domain, residues 1-133; Not in the plasmid list; source: E. coli BL21DE3 pLysS, purified (GST sepharose, thrombin cleavage, gel filtration); not shown: GST, N-terminal, cleaved", "T4 sequence": "T1 sequence", "assay": "ITC; Nano ITC, 12°C, 75 mM HEPES pH 7.4, 0.25 mM TCEP; PHear domains in the cell, peptides at 1-5 mM titrated in", "settings": "both partners purified"}, "[9]": {"molecular_target": "T5, NECAP1 PHear (1-133) S88A (UniProt Q8NC96 1-133, S88A)", "T5 construct": "NECAP1 PHear domain, residues 1-133; source: E. coli BL21DE3 pLysS, purified (GST sepharose, thrombin cleavage, gel filtration); not shown: GST, N-terminal, cleaved", "T5 sequence": "T1 sequence with D37R, S93A", "assay": "ITC; Nano ITC, 12°C, 75 mM HEPES pH 7.4, 0.25 mM TCEP; PHear domains in the cell, peptides at 1-5 mM titrated in", "settings": "both partners purified"}, "[10]": {"molecular_target": "T6, NECAP1 PHear (1-133) R102A (UniProt Q8NC96 1-133, R102A)", "T6 sequence": "T1 sequence with D37R, R107A", "assay": "ITC"}, "[11]": {"molecular_target": "T7, NECAP1 PHear domain (NECAP 1-133), wild type (UniProt Q8NC96 1-133)", "T7 chain": "T1 sequence with D37R", "assay": "ITC; + FxDxF peptide"}, "[12]": {"molecular_target": "NECAP1 PHear domain (NECAP 1-133), wild type (UniProt Q8NC96)", "assay": "ITC; Nano ITC, 12°C, 75 mM HEPES pH 7.4, 0.25 mM TCEP; PHear domains in the cell, peptides at 1-5 mM titrated in"}}, "note": "Positions count from the first letter of the chain named. Square brackets hold non-standard residues; d marks the D form. Ends that are not written are not given here. pT = C[C@@H](OP(=O)(O)O)[C@H](N)C(=O)O"}
{"molecule": "Recombinant T156-phosphorylated AP2 core (from UniProt P18484 1-938; P63010 1-592; P84092 1-435; P62743 1-142) (complex)", "values": [{"measurement": "fold increase in liposome-binding affinity against the unphosphorylated core", "setting": "[1]", "result": 3, "unit": "fold"}]}
{"molecule": "AP2 μ2 subunit (recombinant AP2 core / Pcore, GST-μ2 linkers, μ2 linker peptides) μ2 linker, 149-163 (from UniProt P84092) pT156 peptide", "values": [{"measurement": "KD", "setting": "[2]", "result": "gained; reference no binding detected"}]}
{"molecule": "mRuby2-Flag-GGGS-NECAP1 R90A (from UniProt Q8NC96-1 1-275) (natural protein)", "values": [{"measurement": "percent reduction in binding against NECAP1-mRuby2 WT", "setting": "[3]", "result": 60, "unit": "%"}]}
{"molecule": "NECAP1 PHear domain (NECAP 1-133), wild type (from UniProt Q8NC96 1-133) (domain or fragment)", "values": [{"measurement": "Kd", "setting": "[4]", "result": 8, "unit": "µM"}]}
{"molecule": "B1", "values": [{"measurement": "Kd", "setting": "[5]", "result": 126, "unit": "µM"}, {"measurement": "Kd", "setting": "[6]", "result": "> 300", "unit": "µM"}, {"measurement": "binding result", "setting": "[7]", "result": "binds"}, {"measurement": "binding result", "setting": "[8]", "result": "binds"}, {"measurement": "binding result", "setting": "[9]", "result": "binds"}, {"measurement": "Kd", "setting": "[10]", "result": 57, "unit": "µM"}, {"measurement": "Kd", "setting": "[11]", "result": 44.9, "unit": "µM"}, {"measurement": "Kd", "setting": "[12]", "result": 55, "unit": "µM"}]}
